Key:
Type in all cases: cell-based, human
[1] = test system: HEK293T cells; assay: Western blot of PDZ-proteins, p53 and E6AP in stable cell lines; settings: source data of Figure 6 E, stable HEK293T cell line, IRES control line about 1
[2] = test system: HEK293T cells; assay: Label-free MS proteome of stable cell lines expressing HPV16 E6 or E6ΔPBM; settings: source data of Figure 6 D, IRES control line about 1; for p53 relative protein level: stable HEK293T cell line expressing the construct; for AHNAK relative protein level / LIN7C relative protein level / MPP6 relative protein level / SNX27 relative protein level: stable HEK293T cell line
Experimental: HEK293T and HeLa cells were authenticated and found 100% identity to ATCC cat. CRL-3216 and ATCC cat. CCL-2, respectively. Jurkat and HaCat cell lines were not authenticated (original source: ECACC and Deutsches Krebsforschungszentrum DKFZ, respectively). HeLa cells were grown in DMEM (1 g/L glucose, Gibco) medium completed with 5% FCS and 40 μg/mL gentamicin, diluted every 3rd/4th day 1/10. HaCat cells were grown in DMEM (1 g/L glucose, Gibco) medium completed with 10% FCS and 40 μg/mL gentamicin, diluted every 3rd/4th day 1/4. Jurkat cells were grown in RPMI (Gibco) medium completed with 10% FCS and 40 μg/mL gentamicin, diluted every 3rd/4th day 1/12. All cells were kept at 37 °C and 5% CO2. For proteomics analyses cells were seeded on T-175 flasks. After they reached confluency, adherent cells were washed with PBS once and collected by scraping with ice-cold lysis buffer (Hepes-KOH pH 7.5 50 mM, NaCl 150 mM, Triton X-100 1%, complete EDTA-free protease inhibitor cocktail 1×, EDTA 2 mM, TCEP 5 mM, glycerol 10%). Jurkat cells were collected by 1000 g × centrifugation, washed once with PBS, then collected by 1000 g × 5 min centrifugation again and lysed in ice-cold lysis buffer. Lysates were sonicated 4 × 20 s with 1 s long pulses on ice, then incubated rotating at 4 °C for 30 min. Lysates were centrifuged at 12,000 rpm 4 °C for 20 min and supernatant was kept for further analysis. Concentration determination was carried out by standard Bradford method (Bio-Rad Protein Assay Dye Reagent #5000006) using BSA (MP BIomedicals #160069) as control on a Bio-Rad SmartSpec 3000 spectrophotometer instrument.
The samples were precipitated with TCA 20% overnight at 4 °C and centrifuged at 14,000 rpm for 10 min at 4 °C. The protein pellets were washed twice with 1 mL cold acetone and air dried. The protein extracts were solubilized in urea 8 M, reduced with 5 mM TCEP for 30 min, and alkylated with 10 mM iodoacetamide for 30 min in the dark. Double digestion was performed at 37 °C with 500 ng endoproteinase Lys-C for 4 h, followed by fourfold dilution and an overnight digestion with 500 ng trypsin. Peptide mixtures were then desalted on C18 spin-column and dried on Speed-Vacuum.
Samples were analyzed using an Ultimate 3000 nano-RSLC (Thermo Scientific, San Jose California) coupled in line with a LTQ-Orbitrap ELITE mass spectrometer via a nano-electrospray ionization source (Thermo Scientific, San Jose California). Peptide mixtures were injected in 0.1% TFA on a C18 Acclaim PepMap100 trap-column (75 µm ID × 2 cm, 3 µm, 100 Å, Thermo Fisher Scientific) for 3 min at 5 µL/min with 2% ACN, 0.1% FA in H2O and then separated on a C18 Accucore nano-column (75 µm ID × 50 cm, 2.6 µm, 150 Å, Thermo Fisher Scientific) at 220 nl/min and 38 °C with a 90 min linear gradient from 5% to 30% buffer B (A: 0.1% FA in H2O/B: 99% ACN, 0.1% FA in H2O), regeneration at 5% B. The mass spectrometer was operated in positive ionization mode, in data-dependent mode with survey scans from m/z 350–1500 acquired in the Orbitrap at a resolution of 120,000 at m/z 400. The 20 most intense peaks from survey scans were selected for further fragmentation in the Linear Ion Trap with an isolation window of 2.0 Da and were fragmented by CID with normalized collision energy of 35%. (TOP20CID method) Unassigned and single charged states were excluded from fragmentation. The Ion Target Value for the survey scans (in the Orbitrap) and the MS2 mode (in the Linear Ion Trap) were set to 1E6 and 5E3 respectively and the maximum injection time was set to 100 ms for both scan modes. Dynamic exclusion was set to 20 s after one repeat count with mass width at ±10 ppm.
Proteins were identified by database searching using SequestHT (Thermo Fisher Scientific) with Proteome Discoverer 2.4 software (PD2.4, Thermo Fisher Scientific) on human FASTA database downloaded from SwissProt (reviewed, release 2020_11_27, 20304 entries, https://www.uniprot.org/). […]

[3] = test system: SCRIB; assay: Western blot in stable HEK293T cell lines; settings: for SCRIB relative protein level: source data of Figure 6 E, stable HEK293T cell line, IRES control line about 1

B1: E6: wild-type HPV16 E6 oncoprotein stably expressed in HEK293T cells (protein, UniProt P03126 1-158, looked up)
chain: MHQKRTAMFQDPQERPRKLPQLCTELQTTIHDIILECVYCKQQLLRREVYDFAFRDLCIVYRDGNPYAVCDKCLKFYSKISEYRHYCYSLYGTTLEQQYNKPLCDLLIRCINCQKPLCPEEKQRHLDKKQRFHNIRGRWTGRCMSCCRSSRTRRETQL
modifications: full-length
notes: wild-type HPV16 E6 oncoprotein stably expressed in HEK293T cells
E6AP relative protein level ([1]; replicate 1): 0.1109
MAGI1 relative protein level ([1]; replicate 1): 1.104
SNX27 relative protein level ([1]; replicate 1): 1.182
p53 relative protein level ([1]; replicate 1): 0.0349
E6AP relative protein level ([1]; replicate 2): 0.2467
MAGI1 relative protein level ([1]; replicate 2): 0.7612
SNX27 relative protein level ([1]; replicate 2): 0.5109
p53 relative protein level ([1]; replicate 2): 0.03479
E6AP relative protein level ([1]; replicate 3): 0.1353
MAGI1 relative protein level ([1]; replicate 3): 0.6199
SNX27 relative protein level ([1]; replicate 3): 0.8346
p53 relative protein level ([1]; replicate 3): 0.01425
p53 relative protein level ([2]; replicate 1): 0.1537
p53 relative protein level ([2]; replicate 2): 0.2546
p53 relative protein level ([2]; replicate 3): 0.1997
AHNAK relative protein level ([2]; replicate 1): 0.9544
LIN7C relative protein level ([2]; replicate 1): 0.7333
MPP6 relative protein level ([2]; replicate 1): 0.8283
SNX27 relative protein level ([2]; replicate 1): 0.8078
AHNAK relative protein level ([2]; replicate 2): 0.9923
LIN7C relative protein level ([2]; replicate 2): 0.764
MPP6 relative protein level ([2]; replicate 2): 0.8646
SNX27 relative protein level ([2]; replicate 2): 1.3738
AHNAK relative protein level ([2]; replicate 3): 1.222
LIN7C relative protein level ([2]; replicate 3): 1.025
MPP6 relative protein level ([2]; replicate 3): 0.4141
SNX27 relative protein level ([2]; replicate 3): 1.15
SCRIB relative protein level ([3]; replicate 1): 0.8205
SCRIB relative protein level ([3]; replicate 2): 0.6696
SCRIB relative protein level ([3]; replicate 3): 0.6225
decrease of SCRIB levels ([3]; western blot, GAPDH normalized, stable HEK293T cells compared to control cells, n = 3): ~ 30%

Reference: article PMC9482650, “Quantitative fragmentomics allow affinity mapping of interactomes” (Nature Communications, 2022)
